Source: the supplement of paper PMC9732359
± gives the uncertainty stated by the source.

Assay: protein stability index of a GFP-peptide fusion (yeast GPS) (PSI 1-4); higher = more stable; sorted into four equal gates, so the index is relative within each strain
Procedure, shortened: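 Mid-log yeast cultures in leucine-free medium, carrying a pooled plasmid library, were sorted into four equal gates by their GFP/Cherry fluorescence ratio. Each plasmid expressed Cherry along with GFP fused upstream of a tiled 17-residue yeast protein peptide. Plasmids recovered from each gate were PCR-amplified and Illumina-sequenced, with reads assigned to strains by barcodes. The protein stability index was obtained by summing each gate's read frequency weighted by its gate number.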

Sequence | protein stability index (doa10∆) | protein stability index (pdr5∆) | protein stability index (san1∆) | protein stability index (ubr1∆)
HLELYTSQYGTPSTETA [PRE3] | 1.39 ± 0.043 | 1.9 ± 0.04 | 1.44 ± 0.084 | 1.64 ± 0.037
VSPNDNNSANNNAHSSD [YMR153W/NUP53] | 2.91 ± 0.05 | 2.84 ± 0.06 | 2.75 ± 0.053 | 2.56 ± 0.037
APSLTVPPIASPQQFLR [PRE2] | 1.56 ± 0.05 | 1.95 ± 0.058 | 1.67 ± 0.071 | 1.65 ± 0.045
FNNQGKLDLFKYFTELS [MED1] | 3.07 ± 0.092 | 2.83 ± 0.072 | 2.92 ± 0.056 | 2.88 ± 0.092
DNVSSQQMHEVRKELRG [RPP0] | 2.4 ± 0.14 | 2.45 ± 0.18 | – | 2.82 ± 0.13
SNIELAFSSVEHIIRDV [COB] | 3 ± 0.087 | 2.78 ± 0.1 | 2.79 ± 0.079 | 2.73 ± 0.11
NARIYNTEGSVVYEDSL [SNF2] | 3.1 ± 0.084 | 3.25 ± 0.085 | 2.92 ± 0.11 | 3.25 ± 0.13
IDATLKEELLRDGVLTV [RRP45] | 1.8 ± 0.047 | 1.92 ± 0.05 | 2 ± 0.081 | 2.04 ± 0.045
PCLRKYEEFRDVAIENN [RRP43] | 2.73 ± 0.064 | 2.82 ± 0.065 | 2.9 ± 0.041 | 2.94 ± 0.047
NVTIAQGGVLPNIHQNL [HTA1] | 1.65 ± 0.05 | 1.48 ± 0.043 | 1.36 ± 0.066 | 1.46 ± 0.034
SNFTSIIGPNGSGKSNM [SMC1] | 3.33 ± 0.13 | 3.04 ± 0.15 | 3.37 ± 0.12 | 3.46 ± 0.093
GTLLREDDNTPAGHAGN [YDL088C/ASM4] | 3.03 ± 0.084 | 2.79 ± 0.086 | 3.09 ± 0.054 | 3 ± 0.045
IKLSLKDKTKNISAEII [SMC4] | 2.84 ± 0.082 | 3.09 ± 0.08 | 3.04 ± 0.066 | 3.11 ± 0.082
SKFYNMKQPYVFVKKHH [SSN2] | 1.58 ± 0.11 | 1.5 ± 0.11 | 1.24 ± 0.14 | 1.28 ± 0.044
FLNEARDKAGRLAEVNL [RPO21] | 2.05 ± 0.074 | 1.55 ± 0.054 | 2.06 ± 0.13 | 1.47 ± 0.055
NTKEEFAAAPNDTSSGT [SNF5] | 2.97 ± 0.067 | 3.06 ± 0.062 | 2.96 ± 0.055 | 2.9 ± 0.062
KSSDSNDSNPSFSFSIP [YLR335W/NUP2] | 2.62 ± 0.046 | 2.53 ± 0.048 | 2.31 ± 0.058 | 2.81 ± 0.034
VVGVVGYVETPRGLRSL [RPL3] | 2.15 ± 0.072 | 2.68 ± 0.049 | 3.15 ± 0.056 | 2.98 ± 0.095
NVGTNTYRLGEWSKISV [POP1] | 1.97 ± 0.25 | 2.34 ± 0.12 | 2.69 ± 0.097 | 3.17 ± 0.12
FYLYMLVQKFGGADQVT [SWI1] | – | 1.35 ± 0.19 | – | 1.75 ± 0.14
PLNDGFVDLVEHFLKLN [YML103C/NUP188] | 1.84 ± 0.28 | 1.63 ± 0.12 | – | 2.53 ± 0.13
NHDRINISNNLQKALTV [RPN8] | 3.17 ± 0.064 | 3.29 ± 0.062 | 3.38 ± 0.038 | 3.27 ± 0.046
KIRITLTSTKVKQLENV [RPS20] | 1.77 ± 0.076 | 2.11 ± 0.12 | 1.94 ± 0.11 | 2.25 ± 0.068
PANVLLVQSLNDMVLEL [NNF1] | 2.67 ± 0.18 | 2.68 ± 0.17 | 2.83 ± 0.13 | 2.94 ± 0.057
FVPNDGCLNFVDENDEV [RPS23A] | 2.94 ± 0.063 | 3.04 ± 0.071 | 2.78 ± 0.05 | 2.65 ± 0.055
KLTVCFDDILKVGAEMM [MED2] | 1.97 ± 0.07 | 1.95 ± 0.06 | 1.89 ± 0.11 | 2 ± 0.041

Sequence | protein stability index (doa10∆) | protein stability index (pdr5∆) | protein stability index (san1∆) | protein stability index (ubr1∆)
PLITRHCYPRQLCQITC [RRP46] | 1.89 ± 0.054 | 2.02 ± 0.049 | 1.92 ± 0.095 | 2.11 ± 0.044
LLKKELLTIEPKLKEAT [SMC2] | 3.22 ± 0.052 | 3.14 ± 0.064 | 3.11 ± 0.046 | 3.21 ± 0.039
QIILAYIKYNILLTSIS [SRP68] | 1.29 ± 0.08 | 1.25 ± 0.074 | 1.12 ± 0.28 | 1.18 ± 0.15
LVQQIQKETQKVTKIWS [PRP28] | 2.39 ± 0.06 | 2.58 ± 0.064 | 2.52 ± 0.058 | 2.26 ± 0.047
ENSTSNSKPEKSSDSND [YLR335W/NUP2] | 3.24 ± 0.14 | 3.32 ± 0.16 | 3.31 ± 0.071 | 3.4 ± 0.085
SYLSNSLDTSASTINGA [YML103C/NUP188] | 2.31 ± 0.058 | 1.78 ± 0.063 | 1.76 ± 0.065 | 1.84 ± 0.06
VVVAETSPEKKDGGDKP [YAR002W/NUP60] | 2.85 ± 0.19 | 3.23 ± 0.24 | 2.72 ± 0.13 | 3.44 ± 0.2
HPPFIKYACLAIRKNGQ [SIN4] | 1.45 ± 0.042 | 1.51 ± 0.039 | 1.68 ± 0.065 | 1.42 ± 0.031
FDYSVILNSIPAAANLD [YJL039C/NUP192] | 1.48 ± 0.051 | 1.44 ± 0.083 | 1.71 ± 0.079 | 1.26 ± 0.047
EEKEEEAAEESDDDMGF [RPP1B] | 3.19 ± 0.06 | 3.23 ± 0.065 | 3.09 ± 0.048 | 3.31 ± 0.036
GNENFEDFDVEHFSDEE [RPO26] | 3.05 ± 0.088 | 3.1 ± 0.088 | 2.95 ± 0.085 | 3.17 ± 0.082
FTVNVLYPDSSSFKKNL [RPN3] | 2.08 ± 0.057 | 2.59 ± 0.067 | 2.55 ± 0.063 | 2.44 ± 0.057
PKKHLSETADETLENNI [RPN11] | 3.15 ± 0.1 | 3.13 ± 0.098 | 3.17 ± 0.077 | 2.84 ± 0.088
THSYNFMRQNLEWNMAN [RPC82] | 2.45 ± 0.064 | 1.75 ± 0.057 | 1.74 ± 0.07 | 2.24 ± 0.048
VSQVRVVPNEKADDDSV [ASC1] | 2.72 ± 0.17 | 3.11 ± 0.15 | 3.06 ± 0.11 | 2.6 ± 0.08
SIDPPGCVDIDDALHAK [DIS3] | 3.12 ± 0.085 | 3.19 ± 0.072 | 3.25 ± 0.071 | 3.31 ± 0.06
LALGSHNKLIQFGNACI [SSN2] | 2.13 ± 0.13 | 1.6 ± 0.087 | 2.2 ± 0.13 | 1.28 ± 0.089
DHGDGILLIDSEIARTY [RPN9] | 2.73 ± 0.22 | 3.03 ± 0.3 | 3.29 ± 0.17 | 3.17 ± 0.24
HRINMDKYHPGYFGKVG [RPL28] | 3.4 ± 0.074 | 3.41 ± 0.059 | 3.24 ± 0.061 | 3.24 ± 0.068
IEIEDEKVSSVLSALEG [RPP2A] | 2.88 ± 0.037 | 2.29 ± 0.034 | 2.81 ± 0.029 | 2.449 ± 0.024
IHYSWSFILYYRRALQS [YML103C/NUP188] | 1.48 ± 0.064 | 1.09 ± 0.042 | 1.26 ± 0.11 | 1.12 ± 0.082
CFPQYVNSKQGAINVAN [NNF1] | 2.43 ± 0.29 | – | – | 3.02 ± 0.16
NLGSNVRNSFPLDEIPV [REC8] | 2.95 ± 0.074 | 2.98 ± 0.13 | 2.88 ± 0.087 | 3.06 ± 0.058
PADRPQGRRNSRNFSTR [SIR4] | 3.02 ± 0.11 | 3.21 ± 0.074 | 3.1 ± 0.071 | 3.15 ± 0.074
DVAFADGGKTLRACAAN [YMR129W/POM152] | 1.54 ± 0.18 | 2.6 ± 0.19 | – | 2.36 ± 0.1
DENGDKNDNGGKMNNEV [SWI3] | 3.15 ± 0.084 | 3.41 ± 0.077 | 3.12 ± 0.044 | 3.33 ± 0.097
